# Reference: article PMC314469, “Protein Interaction Networks by Proteome Peptide Scanning” (PLoS Biology, 2004)
# Target: T1, Boi1 SH3 (BOI1_YEAST), P38041
# T1 chain: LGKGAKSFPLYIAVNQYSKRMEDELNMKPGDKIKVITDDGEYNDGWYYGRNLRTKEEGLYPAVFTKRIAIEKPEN
# Experiment: SPOT array
row,Binder,"normalised SPOT signal, Boehringer light units (BLU); mean over the file's lines of this peptide"
1,RFSSRRAPIAPSGK [YMR031W-A 89-102],2030
2,RKSDKNAPSVPQVD [YJL117W 12-25],1390
3,RHSKKPAPPPPGMQ [YMR109W 1006-1019],341
4,RIRDKSKPSSPTAT [YDR474C 379-392],1510
5,QWSKRIMPYIPGPV [YBR200W 345-358],123
6,RAGNREPPSTPSTL [YBR079C 874-887],705
7,QVYEKTIPLFPPEI [YDR416W 606-619],11
8,REYIKSLPMYPAAP [YBL016W 257-270],150
9,REGPKSSPRGPLSP [YPR107C 40-53],3920
10,QTGSKTVPQAPQAP [YLR095C 762-775],45.3
11,QTVIKTHPRIPKSE [YMR211W 94-107],213
12,RFWTRARPIDPNAY [YNL317W 375-388],487
13,RGWQRFLPTGPIAH [YGR255C 239-252],95.9
14,RDDVKRTPFIPESV [YPL093W 369-382],0

# Target: T2, Boi2 SH3 (BOI2_YEAST), P39969
# T2 chain: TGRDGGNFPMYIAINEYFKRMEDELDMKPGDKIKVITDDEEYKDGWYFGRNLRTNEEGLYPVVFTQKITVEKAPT
# Experiment: SPOT array
row,Binder,"normalised SPOT signal, Boehringer light units (BLU); mean over the file's lines of this peptide"
1,RFSSRRAPIAPSGK [YMR031W-A 89-102],54.1
2,RKSDKNAPSVPQVD [YJL117W 12-25],-0
3,RHSKKPAPPPPGMQ [YMR109W 1006-1019],22.2
4,RIRDKSKPSSPTAT [YDR474C 379-392],3.1
5,QWSKRIMPYIPGPV [YBR200W 345-358],145
6,RAGNREPPSTPSTL [YBR079C 874-887],18.7
7,QVYEKTIPLFPPEI [YDR416W 606-619],3.6
8,REYIKSLPMYPAAP [YBL016W 257-270],83.3
9,REGPKSSPRGPLSP [YPR107C 40-53],11.9
10,QTGSKTVPQAPQAP [YLR095C 762-775],17.8
11,QTVIKTHPRIPKSE [YMR211W 94-107],17.1
12,RFWTRARPIDPNAY [YNL317W 375-388],1230
13,RGWQRFLPTGPIAH [YGR255C 239-252],120
14,RDDVKRTPFIPESV [YPL093W 369-382],0

# Target: T3, Myo5 SH3 (MYO5_YEAST), Q04439
# T3 chain: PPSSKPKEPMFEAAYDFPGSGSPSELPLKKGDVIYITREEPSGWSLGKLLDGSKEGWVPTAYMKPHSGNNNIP
# Experiment: SPOT array
row,Binder,"normalised SPOT signal, Boehringer light units (BLU); mean over the file's lines of this peptide"
1,RFSSRRAPIAPSGK [YMR031W-A 89-102],564
2,RKSDKNAPSVPQVD [YJL117W 12-25],395
3,RHSKKPAPPPPGMQ [YMR109W 1006-1019],1940
4,RIRDKSKPSSPTAT [YDR474C 379-392],547
5,QWSKRIMPYIPGPV [YBR200W 345-358],296
6,RAGNREPPSTPSTL [YBR079C 874-887],274
7,QVYEKTIPLFPPEI [YDR416W 606-619],153
8,REYIKSLPMYPAAP [YBL016W 257-270],70.4
9,REGPKSSPRGPLSP [YPR107C 40-53],188
10,QTGSKTVPQAPQAP [YLR095C 762-775],62.9
11,QTVIKTHPRIPKSE [YMR211W 94-107],186
12,RFWTRARPIDPNAY [YNL317W 375-388],279
13,RGWQRFLPTGPIAH [YGR255C 239-252],802
14,RDDVKRTPFIPESV [YPL093W 369-382],171

# Target: T4, Rvs167 SH3 (RV167_YEAST), P39743
# T4 chain: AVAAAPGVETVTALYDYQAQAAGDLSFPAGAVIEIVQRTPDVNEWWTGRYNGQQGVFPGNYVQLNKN
# Experiment: SPOT array
row,Binder,"normalised SPOT signal, Boehringer light units (BLU); mean over the file's lines of this peptide"
1,RFSSRRAPIAPSGK [YMR031W-A 89-102],774
2,RKSDKNAPSVPQVD [YJL117W 12-25],40.6
3,RHSKKPAPPPPGMQ [YMR109W 1006-1019],56.3
4,RIRDKSKPSSPTAT [YDR474C 379-392],55.6
5,QWSKRIMPYIPGPV [YBR200W 345-358],140
6,RAGNREPPSTPSTL [YBR079C 874-887],77.6
7,QVYEKTIPLFPPEI [YDR416W 606-619],22.8
8,REYIKSLPMYPAAP [YBL016W 257-270],101
9,REGPKSSPRGPLSP [YPR107C 40-53],30.2
10,QTGSKTVPQAPQAP [YLR095C 762-775],56.5
11,QTVIKTHPRIPKSE [YMR211W 94-107],9.1
12,RFWTRARPIDPNAY [YNL317W 375-388],1610
13,RGWQRFLPTGPIAH [YGR255C 239-252],562
14,RDDVKRTPFIPESV [YPL093W 369-382],86.7

# Target: Sho1 SH3 (SHO1_YEAST), P40073
# Sequence (P40073 295-366): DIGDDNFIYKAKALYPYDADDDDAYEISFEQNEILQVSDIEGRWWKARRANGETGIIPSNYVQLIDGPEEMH
# Experiment: SPOT array
row,Binder,"normalised SPOT signal, Boehringer light units (BLU); mean over the file's lines of this peptide"
1,RFSSRRAPIAPSGK [YMR031W-A 89-102],124
2,RKSDKNAPSVPQVD [YJL117W 12-25],89.7
3,RHSKKPAPPPPGMQ [YMR109W 1006-1019],175
4,RIRDKSKPSSPTAT [YDR474C 379-392],169
5,QWSKRIMPYIPGPV [YBR200W 345-358],230
6,RAGNREPPSTPSTL [YBR079C 874-887],135
7,QVYEKTIPLFPPEI [YDR416W 606-619],31.6
8,REYIKSLPMYPAAP [YBL016W 257-270],5160
9,REGPKSSPRGPLSP [YPR107C 40-53],27.8
10,QTGSKTVPQAPQAP [YLR095C 762-775],37.7
11,QTVIKTHPRIPKSE [YMR211W 94-107],67
12,RFWTRARPIDPNAY [YNL317W 375-388],177
13,RGWQRFLPTGPIAH [YGR255C 239-252],479
14,RDDVKRTPFIPESV [YPL093W 369-382],45.2

# Target: T5, Yfr024 SH3 (LSB3_YEAST), P43603
# T5 chain: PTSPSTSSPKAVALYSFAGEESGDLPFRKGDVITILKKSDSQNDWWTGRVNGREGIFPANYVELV
# Experiment: SPOT array
row,Binder,"normalised SPOT signal, Boehringer light units (BLU); mean over the file's lines of this peptide"
1,RFSSRRAPIAPSGK [YMR031W-A 89-102],2420
2,RKSDKNAPSVPQVD [YJL117W 12-25],13.7
3,RHSKKPAPPPPGMQ [YMR109W 1006-1019],304
4,RIRDKSKPSSPTAT [YDR474C 379-392],592
5,QWSKRIMPYIPGPV [YBR200W 345-358],1820
6,RAGNREPPSTPSTL [YBR079C 874-887],212
7,QVYEKTIPLFPPEI [YDR416W 606-619],9.3
8,REYIKSLPMYPAAP [YBL016W 257-270],102
9,REGPKSSPRGPLSP [YPR107C 40-53],184
10,QTGSKTVPQAPQAP [YLR095C 762-775],6.6
11,QTVIKTHPRIPKSE [YMR211W 94-107],134
12,RFWTRARPIDPNAY [YNL317W 375-388],4260
13,RGWQRFLPTGPIAH [YGR255C 239-252],2080
14,RDDVKRTPFIPESV [YPL093W 369-382],92

# Target: T6, Yhr016c SH3 (YSC84_YEAST), P32793
# T6 chain: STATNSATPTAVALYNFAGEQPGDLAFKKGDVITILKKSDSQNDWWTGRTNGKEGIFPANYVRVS
# Experiment: SPOT array
row,Binder,"normalised SPOT signal, Boehringer light units (BLU); mean over the file's lines of this peptide"
1,RFSSRRAPIAPSGK [YMR031W-A 89-102],184
2,RKSDKNAPSVPQVD [YJL117W 12-25],50.6
3,RHSKKPAPPPPGMQ [YMR109W 1006-1019],17.7
4,RIRDKSKPSSPTAT [YDR474C 379-392],46.3
5,QWSKRIMPYIPGPV [YBR200W 345-358],109
6,RAGNREPPSTPSTL [YBR079C 874-887],31.9
7,QVYEKTIPLFPPEI [YDR416W 606-619],5.4
8,REYIKSLPMYPAAP [YBL016W 257-270],48
9,REGPKSSPRGPLSP [YPR107C 40-53],36.3
10,QTGSKTVPQAPQAP [YLR095C 762-775],28.7
11,QTVIKTHPRIPKSE [YMR211W 94-107],63.7
12,RFWTRARPIDPNAY [YNL317W 375-388],970
13,RGWQRFLPTGPIAH [YGR255C 239-252],597
14,RDDVKRTPFIPESV [YPL093W 369-382],0
